T1: GST-Ets1 fusion protein (UniProt P14921 1-441)
T1 construct: Transcription factor Ets1 fused to GST; the only Ets1 cDNA it names is human ETS1 (pSG5-hEts1); also called purified GST-Ets1 fusion; source: recombinant fusion protein, prepared using glutathione-sepharose resin as previously described [40]; held on the resin
T1 sequence (looked up): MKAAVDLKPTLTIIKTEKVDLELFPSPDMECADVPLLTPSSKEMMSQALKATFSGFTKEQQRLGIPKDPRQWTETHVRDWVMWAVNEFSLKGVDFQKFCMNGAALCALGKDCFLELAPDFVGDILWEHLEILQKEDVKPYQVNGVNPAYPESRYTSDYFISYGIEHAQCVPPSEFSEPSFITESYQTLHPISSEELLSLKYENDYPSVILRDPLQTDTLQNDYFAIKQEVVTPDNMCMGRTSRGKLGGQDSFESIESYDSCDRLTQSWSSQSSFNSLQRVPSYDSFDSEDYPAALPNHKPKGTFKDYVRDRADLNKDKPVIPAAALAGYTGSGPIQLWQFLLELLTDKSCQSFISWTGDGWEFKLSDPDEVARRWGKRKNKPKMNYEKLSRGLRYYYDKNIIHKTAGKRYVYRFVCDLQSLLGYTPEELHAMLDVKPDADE


Biological target: T1, GST-Ets1 fusion protein
Assay: pull-down; GST or GST-Ets1 (4 µg/20 µL glutathione-sepharose resin) in 0.5 mL binding buffer (40 mM HEPES pH 7.5, 100 mM NaCl, 5 mM MgCl2, 0.1 mM EDTA, 0.05% Nonidet P-40, 1 mM DTT); GreenLys-labeled ERα (5 µL) 30 min at 4°C, labeled NCOA (5 µL) a further 2 h, alone or in combination; washed 3 times with 0.1% Triton X-100; SDS-PAGE, fluorescence imaging, percent of input bound
Conditions: one partner purified

Row | percent of labeled input bound [%] | Binder
1 | 27 | nuclear receptor coactivator NCOA1 (SRC1), GreenLys-labeled (natural protein, Fluorotect GreenLys-labeled (fluorescent lysines built in during translation), plasmid PCR3.1 SRC1/NCOA1 from O'Malley and Smith; source: in vitro translated (TNT coupled transcription-translation reticulocyte lysate, T7 polymerase) from PCR3.1 SRC1/NCOA1) not shown
2 | 9 | nuclear receptor coactivator NCOA2 (SRC2), GreenLys-labeled (natural protein, Fluorotect GreenLys-labeled (fluorescent lysines built in during translation), plasmid PCR3.1 SRC2/NCOA2 from O'Malley and Smith; source: in vitro translated (TNT coupled transcription-translation reticulocyte lysate, T7 polymerase) from PCR3.1 SRC2/NCOA2) not shown
3 | 10 | estrogen receptor α (ERα), GreenLys-labeled (receptor, human, UniProt P03372 1-595, looked up, Fluorotect GreenLys-labeled (fluorescent lysines built in during translation), also called hERα; fluorescently labeled ERα; source: in vitro translated (TNT coupled transcription-translation reticulocyte lysate, T7 polymerase) from pcDNA3.1 ERα) MTMTLHTKASGMALLHQIQGNELEPLNRPQLKIPLERPLGEVYLDSSKPAVYNYPEGAAYEFNAAAAANAQVYGQTGLPYGPGSEAAAFGSNGLGGFPPLNSVSPSPLMLLHPPPQLSPFLQPHGQQVPYYLENEPSGYTVREAGPPAFYRPNSDNRRQGGRERLASTNDKGSMAMESAKETRYCAVCNDYASGYHYGVWSCEGCKAFFKRSIQGHNDYMCPATNQCTIDKNRRKSCQACRLRKCYEVGMMKGGIRKDRRGGRMLKHKRQRDDGEGRGEVGSAGDMRAANLWPSPLMIKRSKKNSLALSLTADQMVSALLDAEPPILYSEYDPTRPFSEASMMGLLTNLADRELVHMINWAKRVPGFVDLTLHDQVHLLECAWLEILMIGLVWRSMEHPGKLLFAPNLLLDRNQGKCVEGMVEIFDMLLATSSRFRMMNLQGEEFVCLKSIILLNSGVYTFLSSTLKSLEEKDHIHRVLDKITDTLIHLMAKAGLTLQQQHQRLAQLLLILSHIRHMSNKGMEHLYSMKCKNVVPLYDLLLEMLDAHRLHAPTSRGGASVEETDQSHLATAGSTSSHSLQKYYITGEAEGFPATV
4 | 26 | nuclear receptor coactivator NCOA3 (AIB/SRC3), GreenLys-labeled (natural protein, Fluorotect GreenLys-labeled (fluorescent lysines built in during translation), plasmid PCR3.1 SRC3/NCOA3 from O'Malley and Smith; source: in vitro translated (TNT coupled transcription-translation reticulocyte lysate, T7 polymerase) from PCR3.1 SRC3/NCOA3) not shown

Source: PMC3706316, “Transcription Factor Ets1 Cooperates with Estrogen Receptor α to Stimulate Estradiol-Dependent Growth in Breast Cancer Cells and Tumors” (PLoS ONE, 2013)
